Experimental findings from the supplement of paper PMC10567573 are described below.

± gives the standard deviation.

The nature of this data set: protein stability index of a GFP-peptide fusion (GPS, HEK-293T) (PSI 1-6); higher = more stable. As to conditions: c terminus: a fixed tail appended.
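Also: 24-mer peptide tiles fused after GFP, lentivirally expressed, FACS-sorted into six equal bins by GFP/DsRed ratio, decoded by Illumina sequencing, PSI is the read-weighted mean bin number.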

For the sequence ARLFDEPQLASLCLDTIDKSTMDA [BTBD1], the protein stability index (treatment: DMSO) was determined as 4.35 ± 0.43 and the protein stability index (treatment: MLN4924 1 uM, 8 h) is 4.53 ± 0.17.

Turning to ARLRHQELFRLRGIKAQVALRLAE [NOP53], the protein stability index is, setting by setting: (treatment: DMSO) 2.22 ± 0.15; (treatment: MLN4924 1 uM, 8 h) 2.22 ± 0.31.

The sequence ARQEGLTFFGTELAPVRQQELASL [PBXIP1] gave a protein stability index (treatment: DMSO) of 3.56 ± 0.22 and a protein stability index (treatment: MLN4924 1 uM, 8 h) of 3.69 ± 0.48.

For ARSGHRCVADNTNLYVFGGYNPDY [KLHDC10], the protein stability index reads like this: (treatment: DMSO) 2.23 ± 0.22; (treatment: MLN4924 1 uM, 8 h) 2.3 ± 0.36.

For the sequence ASLPSQKYPGPQAEGDSEGLSQGL [CHGA], the protein stability index (treatment: DMSO) was found to be 5.2 ± 0.28 and the protein stability index (treatment: MLN4924 1 uM, 8 h) worked out at 5.25 ± 0.17.

In the case of ASSRSQQSSKRSSRSVEDDKEGHL [CLK3], the protein stability index was 5.44 ± 0.079 (treatment: DMSO) and 5.52 ± 0.29 (treatment: MLN4924 1 uM, 8 h).

As to ATDPFVAFHINKGLVKKYMNSLLI [FADS1], the protein stability index is 2.46 ± 0.59 (treatment: DMSO) and 2.64 ± 0.43 (treatment: MLN4924 1 uM, 8 h).

With ATPGEYSVNICGMNEHPVCSRTWT [SPAG8], the protein stability index was found to be 2.44 ± 0.28 (treatment: DMSO) and 2.57 ± 0.39 (treatment: MLN4924 1 uM, 8 h).

As for AVDFTQEEWGQLDPTQRILYRDVM [ZNF8], the protein stability index was determined as 3.75 ± 0.18 (treatment: DMSO) and 3.88 ± 0.35 (treatment: MLN4924 1 uM, 8 h).

In the case of AWISKIKGSPDVSASSDEPYARIQ [SMIM2], the protein stability index by setting is: (treatment: DMSO) 3.11 ± 0.38; (treatment: MLN4924 1 uM, 8 h) 3.44 ± 0.17.

For the sequence AWLPQAKVPFSQEIKDLILPKISD [PI4K2A], the protein stability index is, setting by setting: (treatment: DMSO) 2.72 ± 0.059; (treatment: MLN4924 1 uM, 8 h) 2.78 ± 0.18.

Turning to AYQQGVGYQMLGNVVTIGLAFFPF [PHTF1], the protein stability index by setting is: (treatment: DMSO) 2.93 ± 0.39; (treatment: MLN4924 1 uM, 8 h) 3.13 ± 0.067.

As to CAFSRTLPWSSVLRVWDMFFCEGV [TBC1D10A], the protein stability index is, setting by setting: (treatment: DMSO) 2.85 ± 0.42; (treatment: MLN4924 1 uM, 8 h) 2.94 ± 0.49.

In the case of CAHCRAHLANHDDLISKSFQGSQG [YPEL3], the protein stability index was 2.45 ± 0.34 (treatment: DMSO) and 2.74 ± 0.24 (treatment: MLN4924 1 uM, 8 h).

For CCLVKMESLEPDAQVLMLGQILEL [FANCE], the protein stability index (treatment: DMSO) stood at 3.04 ± 0.15 and the protein stability index (treatment: MLN4924 1 uM, 8 h) worked out at 2.83 ± 0.48.

Turning to CCRACSVSFSTGAGGWSNHHFCVI [BET1L], the protein stability index runs as follows: (treatment: DMSO) 2.42 ± 0.26; (treatment: MLN4924 1 uM, 8 h) 2.35 ± 0.33.

For the sequence CEEALCSNLSVENVADTLVLADLH [SPOPL], the protein stability index by setting is: (treatment: DMSO) 4.52 ± 0.086; (treatment: MLN4924 1 uM, 8 h) 4.48 ± 0.22.

In the case of CEETGELFEEPAPQALATRALPCP [FCHSD1], the protein stability index runs as follows: (treatment: DMSO) 4.95 ± 0.2; (treatment: MLN4924 1 uM, 8 h) 4.9 ± 0.24.

On to CEGPPRGKGFRDRNVTGTPLTGDK [ADAMTSL2], for which the protein stability index is, setting by setting: (treatment: DMSO) 5.07 ± 0.36; (treatment: MLN4924 1 uM, 8 h) 5.17 ± 0.16.

Consider CEMDWSDKMEAYNIDETCGRHHSQ [TEKT4], for which the protein stability index (treatment: DMSO) came out at 4.53 ± 0.15 and the protein stability index (treatment: MLN4924 1 uM, 8 h) came out at 4.56 ± 0.13.

Take CHSFAAAADGPTVCCNPYHFSRLC [SMAD6]: the protein stability index (treatment: DMSO) was 2.4 ± 0.35 and the protein stability index (treatment: MLN4924 1 uM, 8 h) is 2.22 ± 0.2.

As to CKARMERDGYGMTPLLAASVTGHT [FEM1A], the protein stability index is, setting by setting: (treatment: DMSO) 2.9 ± 0.32; (treatment: MLN4924 1 uM, 8 h) 2.87 ± 0.2.

In the case of CLAQGWKQYQQRAFGWFRCSSCQR [RTP4], the protein stability index is 2.15 ± 0.15 (treatment: DMSO) and 2.27 ± 0.28 (treatment: MLN4924 1 uM, 8 h).

In the case of CLECGKSFCHGSSLKRHLKTHTGE [ZNF449], the protein stability index was found to be 4.78 ± 0.16 (treatment: DMSO) and 5.273 ± 0.015 (treatment: MLN4924 1 uM, 8 h).

CLSFQPECSMKLTPLVLEVFGNEI [VDR]: the protein stability index worked out at 2.27 ± 0.38 (treatment: DMSO) and 2.52 ± 0.19 (treatment: MLN4924 1 uM, 8 h).

CQEWYARRHCPLPQATFWGLVTPR [SOAT2]: the protein stability index runs as follows: (treatment: DMSO) 2.32 ± 0.23; (treatment: MLN4924 1 uM, 8 h) 2.25 ± 0.54.

In the case of CQEYLARNARIVHLVEETRIHVLP [CPXM2], the protein stability index by setting is: (treatment: DMSO) 2.2 ± 0.28; (treatment: MLN4924 1 uM, 8 h) 2.49 ± 0.35.

Take CRCKNSNTVYCKLESCPSRGQGKP [SPRY1]: the protein stability index is 3.66 ± 0.59 (treatment: DMSO) and 3.77 ± 0.29 (treatment: MLN4924 1 uM, 8 h).

Take CRIQDLCAMEDHNCEQLCVNVPGS [MATN2]: the protein stability index came out at 3.01 ± 0.44 (treatment: DMSO) and 2.77 ± 0.32 (treatment: MLN4924 1 uM, 8 h).

In turn, CSSKRSSIPLMGFEFEVRVCDSCH [WDFY2] came in with a protein stability index (treatment: DMSO) of 2.24 ± 0.39 and a protein stability index (treatment: MLN4924 1 uM, 8 h) of 2.15 ± 0.34.

For CTNIFYEEENPGGCEDEYLVNPTC [ZER1], the protein stability index is, setting by setting: (treatment: DMSO) 4.31 ± 0.2; (treatment: MLN4924 1 uM, 8 h) 4.36 ± 0.33.

For CVVCGDKSSGKHYGQFTCEGCKSF [NR2F2], the protein stability index (treatment: DMSO) was 4.76 ± 0.4 and the protein stability index (treatment: MLN4924 1 uM, 8 h) is 4.99 ± 0.14.

Regarding DAASVYTLPAGADFLMCYSVAEGY [CASP6], the protein stability index was 2.34 ± 0.22 (treatment: DMSO) and 2.33 ± 0.25 (treatment: MLN4924 1 uM, 8 h).

Turning to DAGEVSYLPRDFSTYRPLPDPSVW [MYORG], the protein stability index is, setting by setting: (treatment: DMSO) 3.29 ± 0.17; (treatment: MLN4924 1 uM, 8 h) 3.27 ± 0.38.

In the case of DAVPPGMESLISAPLVKTLEKEEE [CDC25B], the protein stability index amounted to 5.44 ± 0.21 (treatment: DMSO) and 5.58 ± 0.33 (treatment: MLN4924 1 uM, 8 h).

Take DDAVRVLREIVHKPGPITLTVAKC [DVL3]: the protein stability index is 2.87 ± 0.16 (treatment: DMSO) and 2.9 ± 0.17 (treatment: MLN4924 1 uM, 8 h).
